The record followed here is patent US20050255113A1, “Methods and compositions for inhibiting polypeptide accumulation associated with neurological disorders” (New York State Department of Health and Abgenix, Inc., priority 1999, published 2005).

The test system of series [1] is cerebellar slices. Nature of the series: Aggregation of model huntingtin-GFP polypeptides in biolistically transfected cerebellar slices. The class given is cell-based, mice (P12 Balb). To be noted: examined after 24 h. Here is the method: Organotypic slice cultures are made from P12-P14 cerebellum, cerebral cortex, or striatum, using published methods with minor modifications (1)(14). The brain is dissected from a mouse and placed in a beaker of high magnesium (1.8 mM CaCl2 and 2.4 mM MgCl2) HEPES-buffered Hanks' saline (HBHS) at 4° C. The brain is then blocked and mounted next to a 2% agarose block on a 1-cm^2 piece of Plexiglas (0.3 cm thick) with SuperGlue®. Dental wax mounts the plastic onto the slicing-chamber tissue-holder. After being mounted, the tissue is placed in the slicing chamber of the vibratome. The bath of the vibratome contains cooled high magnesium HBHS at 4° C. Temperature is maintained by a peltier thermoelectric refrigeration system attached to the slicing chamber (FHC, Brunswick, Me.). Three or 400 μm thick sections were sliced from the tissues of interest. As each new slice was made it was placed into growth medium at 4° C. until the collection of slices was complete. Slices from one preparation were then placed in an enclosed filter unit, and incubated at 37° C. for 1 hour in high magnesium artificial cerebral spinal fluid ([…], 0.33 mM KCl, 0.12 mM NaH2PO4, 2.5 mM NaHCO3, 1 mM dextrose, 2.4 mM MgCl2, 1.8 mM CaCl2; all items from Sigma®, St. Louis, Mo.). Solutions were constantly gassed with 95% O2 and 5% CO2. […]

In series [2] the test system is COS-7 cells. Put plainly: Aggregation and cell death of model huntingtin-GFP fusion polypeptides expressed in COS-7 cells. The class given is cell-based, Primate. From the text: In order to determine the effects of intracellular polypeptide aggregation, cells expressing a polypeptide representing normal huntingtin polypeptide as compared to cells expressing a huntingtin polypeptide representing the polypeptide found in patients with Huntington's disease was examined. Primate cells (COS-7) were transfected with plasmid constructs encoding a model huntingtin-GFP fusion polypeptide representing the normal polypeptide or an altered huntingtin polypeptide associated with disease having 47, 72, or 104 glutamine residues. Within 24 h of transfection, a large number of the cells express the huntingtin polypeptide as indicated by the GFP tag fused to each of the test proteins. Observations were recorded at three time points (see Table 4).
Using fluorescence microscopy, it was observed that cells that express the huntingtin-GFP polypeptide with 104 glutamine residues (FIG. 3D) harbor large, brilliant aggregates. […] In cells expressing a model huntingtin polypeptide with fewer glutamine residues (72Q), extremely bright and more variable aggregates are seen, with slightly less cell death. And in cells expressing a model huntingtin polypeptide with 47 glutamine residues, the fluorescence intensity was less and more diffuse.

Series [3] has as its system model huntingtin polypeptide (HD-25Q-GFP, pHD-104Q-GFP, HD-Q104-myc, GFP-HD-Q104). Put plainly: Intrabody retargeting of model huntingtin polypeptide in co-transfected COS-7 cells (immunofluorescence). The class given is cell-based. Here is the method:
COS 7 cells were grown on cover glass in 6-well plates (10^5 cells/well) and co-transfected at a ratio of 3:1 (sFv to target) with plasmids containing either N-HD-C4 sFv or a negative control sFv (containing an HA tag and SV40 nuclear localization sequence (NLS)) and plasmids containing GFP-targeted fusion proteins using 5 μl SuperFect transfection reagent (QIAGEN). At 24 hours post-transfection, cells were prepared for immunofluorescence as follows: cells were fixed with 4% paraformaldehyde and permeabilized with 0.2% triton-X100. To prevent non-specific binding of secondary antibodies, cells were blocked with 10% normal goat serum in 3% BSA.
The assay is designed such that both the target antigen, i.e., the model huntingtin polypeptide, and the intrabody can be visualized. In particular, the huntingtin polypeptide is visualized by detecting fluorescence emitted by the GFP domain of the huntingtin-GFP fusion polypeptide and the intrabodies tested are visualized using a rhodamine-conjugated antibody that can specifically bind to the intrabody.
The model HD target polypeptide was fused to c-myc (EQKLISEEDL (SEQ ID NO: 45)) epitope tag (HD-Q104-myc). The intrabodies sequences were fused to a HA tag and a SV40 nuclear localization signal (sFv-HA-NLS), so that bound antigens should be retargeted to the cell nuclei. At 48 hours post-transfection, cells were fixed and permeabilized. The HD-Q104-myc proteins were detectable using anti-myc epitope antibodies (i.e., MAb 9E10 IgG), followed by FITC-labeled goat anti-mouse IgG. The sFv-HA-NLS intrabodies were detected by polyclonal rabbit anti-HA IgG followed by rhodamine-conjugated goat anti-rabbit IgG antibodies.
FIGS. 13A-F show stably transfected COS-7 cells expressing α-Nt-HD-C4 sFv-HA-NLS which were further transfected with plasmids encoding either the model altered huntingtin polypeptide with 104 glutamine repeats (FIGS. 13B, D, F) or the model altered DRPLA polypeptide with 81 glutamine repeats (FIGS. 13A, C, E). Both model altered polypeptides were fused to GFP (GFP-HD-Q104 and GFP-DRPLA-Q81, respectively).

Series [4] concerns GST-HD-25Q, GST-HD-42Q. Nature of the series: Affinity purification of sFv with GST-fusion antigens (glutathione-Sepharose, SDS-PAGE, immunoblot). The class given is binding. To be noted: 3 μg sFv with 4 μg antigen, 1 hr room temperature; Coomassie and immunoblot. Here is the method: About 3 ug of N-HD-C4 sFv was mixed with 4 ug of either GST-DRPLA-Q35 or GST-HD-Q25 or GST-HD-Q42 in PBS (200 μl final volume) and rocked for 1 h at RT. Twenty microliters of glutathione Sepharose 4B beads (50% slurry, pre-washed with PBS) was added and incubated for another 30 min at RT to capture the sFv/GST fusion protein complexes. The beads were harvested by centrifugation at 12,000×g for 10 sec and washed thrice with 1 ml PBS. The complexes were eluted with 10 μl of 50 mM Tris pH 8.0 containing 10 mM reduced glutathione for 10 min at RT. Tubes were then centrifuged at 12,000×g for 1 min and the supernatants containing the soluble complexes were transferred to new tubes, mixed with an equal volume of 2× SDS-sample buffer and heated at 95° C. before being loaded on SDS-PAGE.
About 3 μg of each clone were incubated in solution for 1 hour at room temperature with 4 ug of either GST-DRPLA-Q35, GST-HD-Q25 or GST-HD-Q42. Then, a 10 μl bed volume of glutathione-Sepharose 4B (Pharmacia) was added to each tube to precipitate the GST-fusion protein/sFv complexes. After 30 min incubation, tubes were centrifuged and the pellets washed 3 times with 1 ml PBS. The complexes were eluted from glutathione-Sepharose beads by addition of 10 mM reduced glutathione to the pellets.
After centrifugation, supernatants containing the eluted complexes were transferred to new tubes and mixed with an equal volume of 2× SDS-loading buffer. The samples were boiled and the proteins separated on a 12% SDS-PAGE. Protein bands were visualized by Coomassie blue staining, and/or transferred to nitrocellulose membranes in order to detect the sFv molecules by immunoblot.
The binding specificities of the selected sFv clones were tested by affinity binding to a full range of antigens, as follows: (a) using sample numbers that correspond to the experimental results in FIGS. 9 and 10, about 3 μg of α-Nt-HD-C4 sFv clone 1 (lanes 2-4) or α-Nt-HD-C4 sFv clone 2 (lanes 5-7) were mixed with 4 μg of the following antigens and incubated in solution for 1 hr at room temperature (lanes 2 and 5) GST-DRPLA-35Q, (lanes 3 and 6) GST-HD-25Q, (4 and 7) GST-HD-42Q; (b) a 10 μl bed volume of glutathione-Sepharose 4B (Pharmacia) was added to each tube to bind all GST-containing protein complexes; the beads were washed with 10 mM glutathione solution, which eluted the GST-antigen or the sFv-antigen complex, and these eluates were analyzed by SDS-PAGE. Protein bands were visualized by Coomassie blue staining (FIG. 9) and were also transferred to nitrocellulose membranes in order to detect the sFv molecules by immunoblot blot (FIG. 10).
On the technique in general: In western blotting, separated proteins are transferred to a membrane and probed.

B1: 72Q: model huntingtin-GFP fusion polypeptide with 72 glutamine residues; SEQ ID NO: 13 (protein)
chain: MATLEKLMKAFESLKSFQQQQQQQQQQQQQQQQQQQQQQQQQQQQQQQQQQQQQQQQQQQQQQQQQQQQQQQQQQQQQQQQQQQQQQQQ
For the molecule B1, the “aggregates in brain tissue” value in series [1] is “smaller, more discrete aggregates”.

B2: 104Q: model huntingtin-GFP fusion polypeptide with 104 glutamine residues; SEQ ID NO: 14 (protein)
chain: MATLEKLMKAFESLKSFQQQQQQQQQQQQQQQQQQQQQQQQQQQQQQQQQQQQQQQQQQQQQQQQQQQQQQQQQQQQQQQQQQQQQQQQQQQQQQQQQQQQQQQQQQQQQQQQQQQQQQQQ
As to B2, the “aggregates in brain tissue” value in series [1] is reported as “large aggregates”. Besides, the “fluorescence pattern / aggregation / cell death” value in series [2] (72 h after transfection) was “substantial death”.

B3: α-Nt-HD-C4 sFv-NLS: huntingtin-specific C4 sFv intrabody fused to HA tag and SV40 nuclear localization signal (protein)
scFv: QVQLQESGGGLVQPGGSLRLSCAASGFTFSSYSMSWVRQAPGKGLEWVAVISYDGSNKYYADSVKGRFTISRDNSKNTLYLQMNSLRAEDTAVYYCARDRYFDLWGRGTLVTVSSGGGGSGGGGSGGGGSQSALTQPASVSGSPGQSITISCTGTSSDIGAYNYVSWYQQYPGKAPKLLIYDVSNRPSGISNRFSGSKSGDTASLTISGLQAEDEADYYCSSFANSGPLFGGGTKVTVLYPYDVPDYATPPLLLRLV
In the case of B3, the “relocation of HD-Q104-myc” value in series [3] (COS-7, 48 hours post-transfection) is “able to relocate the model altered huntingtin polypeptide HD-Q104-myc from the cytosol to the nucleus”. Also, the “retargeting of HD-25Q-GFP” value in series [3] (COS-7 co-transfection) was “can retarget the distribution of huntingtin polypeptide to the nucleus”. Moreover, in series [3] (COS-7 stably expressing the intrabody), the “colocalization with GFP-HD-Q104 in cell nuclei” value is given as “clearly shows specificity to GFP-HD-Q104”.

B4: 47Q: model huntingtin-GFP fusion polypeptide with 47 glutamine residues; SEQ ID NO: 12 (protein)
chain: MATLEKLMKAFESLKSFQQQQQQQQQQQQQQQQQQQQQQQQQQQQQQQQQQQQQQQQQQQQQQQ
B4: the “fluorescence pattern / aggregation / cell death” value in series [2] (24 h after transfection) is “diffuse, bright”.

B5: α-Nt-HD-C4 sFv clone 1: subclone 1 of α-Nt-HD-C4 sFv expressed in bacteria and purified on Ni-NTA (protein)
scFv: QVQLQESGGGLVQPGGSLRLSCAASGFTFSSYSMSWVRQAPGKGLEWVAVISYDGSNKYYADSVKGRFTISRDNSKNTLYLQMNSLRAEDTAVYYCARDRYFDLWGRGTLVTVSSGGGGSGGGGSGGGGSQSALTQPASVSGSPGQSITISCTGTSSDIGAYNYVSWYQQYPGKAPKLLIYDVSNRPSGISNRFSGSKSGDTASLTISGLQAEDEADYYCSSFANSGPLFGGGTKVTVL
modifications: left off: small tags and cut ends
notes: subclone 1 of α-Nt-HD-C4 sFv expressed in bacteria and purified on Ni-NTA
Consider B5, for which the “sFv co-purified with antigens containing the Nt-HD sequence” value in series [4] was “binding only the HD flanking peptide”.

B6: α-Nt-HD-C4 sFv clone 2: subclone 2 of α-Nt-HD-C4 sFv expressed in bacteria and purified on Ni-NTA (protein)
scFv: QVQLQESGGGLVQPGGSLRLSCAASGFTFSSYSMSWVRQAPGKGLEWVAVISYDGSNKYYADSVKGRFTISRDNSKNTLYLQMNSLRAEDTAVYYCARDRYFDLWGRGTLVTVSSGGGGSGGGGSGGGGSQSALTQPASVSGSPGQSITISCTGTSSDIGAYNYVSWYQQYPGKAPKLLIYDVSNRPSGISNRFSGSKSGDTASLTISGLQAEDEADYYCSSFANSGPLFGGGTKVTVL
modifications: left off: small tags and cut ends
notes: subclone 2 of α-Nt-HD-C4 sFv expressed in bacteria and purified on Ni-NTA
In the case of B6, the “sFv co-purified with antigens containing the Nt-HD sequence” value in series [4] is “binding only the HD flanking peptide”.
